To fix the notation:
B1: ADP378 (protein)
chain: PAPGRPPTHNAHNWRLGQAPANWYNDTYPLSPPQRTPAGIRYRIAVIADLDTESRAQEENTWFSYLKKGYLTLSDSGDKVAVEWDKDHGVLESHLAEKGRGMELSDLIVFNGKLYSVDDRTGVVYQIEGSKAVPWVILSDGDGTVEKGFKAEWLAVKDERLYVGGLGKEWTTTTGDVVNENPEWVKVVGYKGSVDHENWVSNYNALRAAAGIQPPGYLIHESACWSDTLQRWFFLPRRASQERYSEKDDERKGANLLLSASPDFGDIAVSHVGAVVPTHGFSSFKFIPNTDDQIIVALKSEEDSGRVASYIMAFTLDGRFLLPETKIGSVKYEGIEFI
modifications: bait human Fc-tagged dimer
B2: 68 (protein)
chain: LIRNSNTPQAFLIPELNNNEKNEFNNNEKNEMNNNLNNEFNNNEENCDIQKIAEEMMENLLNENDMYTNIMLSLQNRLSDDYLCSEPKYENICIHEKDKISLSFPCSNPKYEKLIHKFTFKKLCNSKAAFNNALLKSFIEEDEEQNTFSLMLKQFKILLTCVDDELKDIYKESIDLLVDLKTSITELTQKLWSGKMVNVLKKREFLITGILCELRNGNKAPLISKSLEFENLGILKMNNEELLNEAYNAFSDYYYFFPYFIQKLLEKGGMIERLIKIHENLAKYRTKDMVNKINAQSKGEVLNNEDILNKLNAYKHYTKHGATSFIQSREVKIVNQNVNNDDTTKNQQQNVNNNEKLNNNNNNNNNQQVNNNNNNNNQQVNNNNNNNNNQVNNNNNNNNNQVNNNNYNNNNQVNNNNNNNQQVNNNNNYNNQLNNNNFNNNLQVNKNDKHVPKNNHATATHTNNILYNPLYSINPEKPKDIIKLLKDLIKYLHIVKFENNEPTTNIDEEGIRKLLENSFFDLNDDILIVRLLLKPQTVILTVIQSFMLMTPSPSRDAKAYCKKALINDQLVPTNDANILSEENELVNNFATKYVLIYEKMKLQELKEMEESKLKMKYSKTNLAALQVTNPQNNKDKNDASNKNNNPNNAATPLIAVVTDLSGEKTEDIINNNVDIATLSVGVQNTFQGP
modifications: bait human Fc-tagged dimer
B3: 58 (protein)
chain: IQLHSVNYAPLNYIEIGDTLSNKVGELWHSHLNSFIDIVSTKVVNKLEDDLSNGNNLEKFMILLEDDADIFDASAYEGKNLALIQTEFIRKLKDKFKNSKFGQKLKKLGSKAKEKLLSLYQKHKGKLRHFFSILLKSLVIPIAVQFIRKNLNKWKQRTLEATQKLDEQSKNIAQPIINRLYNSFEDKIEEYSQENKINVEDELNALGQLDKDKQDIQKLEEQEKALLQ
modifications: bait human Fc-tagged dimer
B4: 5 (protein)
chain: YNIKSGNTANNIKYVNVLDNDRDINTHSVLPEVENVIERKDIYRQINFMETFVSSNNMMHDREKHTSNDAGSYEITGIVDGMKIGHPISVALGSQYSNYFDYLQIVHLDYTNSRFSFTVGEGKYYLRTYGSTYMTPSAIKIKVPCEKCKFINSEYSGIIKIIPYETNNNLFIYNWVLQTSSPLALENINTVFSDEADLIHGNSLSEEFKIDSSAAATSLNTFYGIVLHGIWSSEYAERLLTVISEFPDCVKMSAHDKNARSKQRKNQKWILVNEDLGSFDMKMEVCEEVNCDYSAIIHVSKHAFEYSKKLVHNRGRNGRYYSRRVEKILIRALLSLDFSLFITYFQQKHGVTLLDPQYDYELITNMAGYSSNNYQSWNHNLEELVELATSWDEYPKGLQKVQGLSYLLRRKNGAKHPVYPTAPAVAFPAGSQNNAFIEFMESAFVNYVDISHLVIHEVAHFIWVNTVSKELKEKWIQIGQWYKEPLSPSEWATKLEVEFVSAYAHDKNPAEDFAESMATYVLNSKLLNSRSFDKFKWIQDNLFGGGFYITTGTHKFDVINLGNEVYYFPGKVTRVRAKVLGSPTEDKLVKIYISLLSSDGSEGCAKHGYARIFSEQQTFRDLYFHTEDRSPCSHKLYGEFTMNKHESRGRWTAESMIFTGENNIERYVGLGSFHFYLYVNNQNEDVEKPIPLLDSISIYTHNAAETNDALLRLHVMVLENELIKEHGGPYASFAAHENKAYSYESRTYKMYPPEFNTLMLKADYFIRDINTRGFREVNMDSCKSYTNMDTRNLKCFQVLNPVTIPKYCIGSTYFLRQVSIEDIAGNLETVNIASDKYSARLHPIGVRDKQKPVVSNVRVSSKPANEYHDGETIVSLSFNVHDNLAGVYYIFVYLRDPHGGKHRSDIDRASLPTGTENKQINHKILLPKGSMGGTWMLEEIKAVDSCKNEARNIYTHSVYVQND
modifications: bait human Fc-tagged dimer
B5: 35 (protein)
chain: NNADINKAWKKNTYVDKKLNKLFNRALGESQVNGELASEEVKEKILDLLEEGNTLTESVDDNKNLEEAEDIKENILLSNIEEPKENIIDNLLNNIGQNSEKQESVSENVQVSDELFNELLNSVDVNGEVKENILEESQVNDDIFNSLVKSVQQEQQHNVEEKVEESVEENDEESVEENVEENVEENDDESVASSVEESIASSVDESIDSSIEENVAPTVEEIVAPTVEEIVAPSVVESVAPSVEESVEENVEESVAENVEESVAENVEESVAENVEESVAENVEESVAENVEESVAENVEEIVAPTVEESVAPTVEEIVAPSVEESVAPSVEEIVVPTVEESVAENVEEIVAPSVEEIVAPSVEEIVAPTVEESVAPTVEEIVAPSVEESVAPSVEEIVVPTVEESVAENVEESVAENVEEIVAPSVEEIVAPSVEEIVAPSVEEIVAPSVEEIVAPSVEEIVAPSVEEIVAPSVEEIVAPSVEEIVAPTVEEIVAPTVEEIVAPSVEEIVAPTVEESVAENVATNLADNLLSNLLGGIETEEIKDSILNEIEEVKENVVTTILENVEETTAESVTTFSNILEEIQENTITNDAIEEKLEELHENVLSAALENTQSEEEKKEVIDVIEEVKEEVATTLIETVEQAEEESASTITEIFENLEENAVESNENVAENLEKLNEAVFNTVLDKVEETVEISGESLENNEMDKAFFSEIFDNVKGIQENLLTGMFRSIETSIVIQSEEKVDLNENVVSSILDNIENMKEGLLNKLENIASTEGVQETVTEHVEQNVYVDVDVPAMKDQFLGILNEAGGLKEMFFNLEDVFKSESDVITVEEIKDEPVQKEVEKETVSIIEEMEENIVDVLEEEKEDLTDKMIDAVEESIEISSDSKEETESIKDKEKDVSLVVEEVQDNDMDESVEKVLELKNMEEELMKDAVEINDITSKLIEETQELNEVEADLIKDMEKLKELEKALSEDSKEIIDAKDDTLEKVIEEEHDITTTLDEVVELKDVEEDKIEKVSDLKDLEEDILKEVKEIKELESEILEDYKELKTIETDILEEKKEIEKDHFEKFEEEAEEIKDLEADILKEVSSLEVEEEKKLEEVHELKEEVEHIISGDAHIKGLEEDDLEEVDDLKGSILDMLKGDMELGDMDKESLEDVTAKLGERVESLKDVLSSALGMDEEQMKTRKKAQRPKLEEVLLKEEVKEEPKKKITKKKVRFDIKDKEPKDEIVEVEMKDEDIDEDIEEDVEEDIEEDKVEDIDEDIDEDIDEDIGEDKDEVIDLIVQKEKRIEKVKEKKKKLEKKVEEGVSGLKKHVDEVMKYVQKIDKEVDKEVSKALESKNDVTNVLKQNQDFFSKVKNFVKKYK
modifications: bait human Fc-tagged dimer
B6: 65 (peptide)
chain: MNEAKEEKTNMRNNHLSRVTIEILPSDEDNDIFDINDALLDELIGINNI
modifications: also: human Fc-tagged dimer
B7: 23 (protein)
chain: ENVDTFKCNYAKKKKNGHHIKRHITNDEEKKKEYSFLMLGKENEEENKENKENNQNVNKDNNDNNNNEKKNEEQNHNNEKKQEEVINNNNNNVENKKEEENHNNDKKTDEQNHVNEKKQEGENNKHKKDDTIPPEKKINKENLLEYGTHDKEGHFIPSYKTLTDEILSTNNAMEKASSFLKIACSHVMKLIEFIPESKLSSQYIKVDNKNIYLKDIAVECQNIYFNLEKFSMTLIVFNSKINKFIYSQEK
modifications: bait human Fc-tagged dimer
B8: 49 (protein)
chain: SDSYSTGGNEKEKIFMDNYKYMWTYIYFLQKRIMMKKLSHPLYMSKKFILLHNPKDIEEFRIPLKDTLWSYVDRNSIKGFININLDSIFDIDLKEYYVHDKENMANSEKSEDLECIDAYVQKTNEIYYNMADTKDEAYIFICKKCKHIYKDIKECREKSMQLMIQNMKITVPQIRLKYDKKNRNNEEIIINIPVTYVLSNLLSSLKKTVTYNTDDLNNACNVLIKMLHLDLLKILYNLQYHNGIFNGITEKYLIEFRNIFVKRQKTNTEDNNDMIWEECFVLKKSIDKIMNINSFLLTKSRNRYMDYLQNRRKRYRDILFMITYNVADMNLNTYIKSIYNYIHISTKIIEDIQYIYNQEVYATFFVRTELIETYLLRNPKQLKNTCSIYIMITISWFFNQINIGMYNKNKNVYDLFKEKFSKSNVKQIINSIYTNNVENKANILQICNDAMTNTIELIKKVIKNYYKQNNVLSNYNINFAGLIKFIDIQILRMKFIQSTLEKQPLIEYDTLNDDHLNNDAIIKRENMVCMMKYISNKINTYISLLKKSDLQTIMLQNYDKYNIYLDTYFTHNENVFFCSSPGQYLIIKIFFYSFFNILNIYG
modifications: bait human Fc-tagged dimer
B9: 43 (protein)
chain: LFQEYQCYGSSSNTRVLNELNYDNAGTNLYNELEMNYYGKQENWYSLKKNSRSLGENDDGNNEDNEKLRKPKHKKLKQPADGNPDPNANPNVDPN
modifications: bait human Fc-tagged dimer
B10: 4 (protein)
chain: KVYQGQFYLKKNEKIHYLTKFSCNIGTCQFSIKMKLRDNIAAKLLNNYYKLNNKALKEMENDKDDGNNHNNNKYDDDNNNNNNRANKLLHMDYDNAYYVLSNQDLEYIPQRITLMQDIEQRYVNKNDKCYAFGNLKNSHMFNIPFYFKYSDLVNSKTYNLKNFINNKYSMSFNAIHSELKNNKLLQSEILNYGPILNEKNSNYAYKEIYAKTTHRVHVWFLMFDDCYDNFIRNLKLNIKTKLAYWEYLLHASKKFDISSLNDMDIKQDTSYNDFQNEETEKDIYSKENINNNNNNNMNNNMNEKKNKAIFYKSFNFDKITLLENPKRFLFLEEQFTKSEINDISFFLKYYQFKKMKNFNNMYNNLYKNGYYEQVIDYIYQNEGFHIEYEVNIFQTNKAHFSYE
modifications: bait human Fc-tagged dimer
B11: 42 (protein)
chain: QLRFASLGDWGKDTKGQILNAKYFKQFIKNERVTFIVSPGSNFIDGVKGLNDPAWKNLYEDVYSEEKGDMYMPFFTVLGTRDWTGNYNAQLLKGQGIYIEKNGETSIEKDADATNYPKWIMPNYWYHYFTHFTVSSGPSIVKTGHKDLAAAFIFIDTWVLSSNFPYKKIHEKAWNDLKSQLSVAKKIADFIIVVGDQPIYSSGYSRGSSYLAYYLLPLLKDAEVDLYISGHDNNMEVIEDNDMAHITCGSGSMSQGKSGMKNSKSLFFSSDIGFCVHELSNNGIVTKFVSSKKGEVIYTHKLNIKKKKTLDKVNALQHFAALPNVELTDVPSSGP
modifications: bait human Fc-tagged dimer

No end group written: not given here.

Circumsporozoite protein (CSP), sequence (Q7K740 19-374): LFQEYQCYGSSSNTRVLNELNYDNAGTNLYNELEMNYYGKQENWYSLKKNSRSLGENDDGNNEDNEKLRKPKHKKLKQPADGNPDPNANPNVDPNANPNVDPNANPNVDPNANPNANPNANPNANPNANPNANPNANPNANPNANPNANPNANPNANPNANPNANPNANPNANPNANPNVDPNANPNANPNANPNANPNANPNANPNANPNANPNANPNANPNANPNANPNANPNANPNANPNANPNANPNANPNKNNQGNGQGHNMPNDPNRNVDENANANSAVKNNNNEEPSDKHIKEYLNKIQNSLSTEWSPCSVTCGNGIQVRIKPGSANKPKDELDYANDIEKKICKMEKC

One test has as its target Circumsporozoite protein (CSP) (Plasmodium falciparum (isolate 3D7), UniProt Q7K740). Put plainly: AVEXIS screen signal:noise (double-corrected).
Take B1: the binding score turned out to be 1.3.

Another test has as its target FGFR4 ectodomain (Homo sapiens, UniProt P22455). Nature of the test: AVEXIS normalised luminescence.
B2 registered a binding score of 0.952.

On to B3, for which the binding score was found to be 0.979.

With B4, the binding score was found to be 0.798.

The molecule B5 had a binding score of 0.753.

Take B6: the binding score is 1.05.

For the molecule B7, the binding score was 0.913.

On to B8, for which the binding score came out at 0.996.

Regarding B9, the binding score turned out to be 1.37.

Molecule B10 showed a binding score of 0.9.

Molecule B11 yielded a binding score of 1.51.

The values above are taken from publication PMC11098746 (2024).
